Experiment: yeast display, Sf9 membrane polyspecificity reagent, FACS + sequencing; frameworks hold sequencing errors
Procedure, shortened: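 Polyreactivity labels are assigned by the sorting gate from which each nanobody was recovered. The gates were low and high (top ~1%), set on anti-HA fluorescence for expression and streptavidin fluorescence for reagent binding. Before sorting, galactose-induced (36–48 hours) yeast display cells were stained for 1 hour at 4 °C with 10% biotinylated, detergent-solubilized Sf9 membrane reagent.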

Sequence	polyreactivity (PSR sort gate)
QVQLVESGGGLVQAGGSLRLTSAASGITFYGYAMGWYRQAPGKETELVAAISRSGSSTYYADSVKGRFTISRYNAKNTVYLQMNSLKPEVTAVYYCAARAWAQWGDYWGQGTQLTVSS	high polyreactivity
QVQLVESGGGLVQAGGSLRLTSAASGSIFPYNAMGWYRPAPGKDSELLARISWSGGSTYYADSVKGRFTISRDNAKNTVYLQMKSLKPEDTALYYGAATIIFDAQYRFYYWGQGTQVTVSS	low polyreactivity
QVQLVESGGGLVQAGGSLRLTSAASGSIFQPYAMGWYRQAPVKERELVASIRGSAGSTHYADSVKGRFTISRDNAKNTVYLQMNSLKPEDTAVYYCAARAVASHFSPRLYGYWGQGTQVTVSS	high polyreactivity
QVQLVESGGGLVQAGGSLRLTSAGSGGILPKNAMGWSRQAPGKERELVADISTRGTSTYYADSVKGRFTISRDIAKNTVYLQMNSVKPEVTAVYYCANCRDYIGYDYWGQGSQVTVSS	low polyreactivity
QVQLVESGGGLVQAGGSLRVSCAASGFTFALYAMGWYRQAPGKERELVAAISWSGGTTYYADSVKGRFTISRDNEKNTVDLQMNSLNPEDTAVYYCNAYTRSRGYDYWGQGTQVTVSS	high polyreactivity
QVQLVESGGGLVQAGGSLRVSCAASGFTFGSYAMGWYRQSPGKERELVAVITRSGRTNYADSVKGRFTISRDNAKNTVYLQMNSLKPEDTAVYYCNADDVDDEVSPDLTEMDYWGQGTQVTVSS	low polyreactivity
QVQLVESGGGLVQAGGSLRVSCAASGGIFGWYAMGWSRQAPGKERELVATITWRGGRTYYADSVKGRCTISRDNAKNTVYLQLTSLKPESTAVYYCTAEWLWYDAGYRYTIRDSWGQGTQVTESS	low polyreactivity
QVQLVESGGGLVQAGGSLRVSCAASGGIFWYYTMGWYRQAPGKERELVATISSGGRTYYADSVKGRFTISRDNAKNTVYLQMNSLKPEDTAVYYCAAVGWYHDYYWGQGTQVTVSS	high polyreactivity
QVQLVESGGGLVQAGGSLRVSCAASGIFPAYDMGWYRQAPGKDRELVASISADSGSTHYADSVKGRFTISRDNAKNTVYFQMNSLKPEDTAVYYCAADLGYRTGDYYWGQGTQVTVSS	low polyreactivity
QVQLVESGGGLVQAGGSLRVSCAASGIIFYGYAMGWYRQAPGKEMELVAVITSGGSTNYADSVKGRFTISRDNAKNTVYLQMNSLKPEDTAVYYCAAKYHYFGFRYDYWGQGTQVTVSS	high polyreactivity
QVQLVESGGGLVQAGGSLRVSCAASGRIIPSYAMGWYRQAPGKERELVAVIRSSVDGTYYADSVKGRFTISRDNAKNTVYLQMNSLKPEDTAVYYCAADSYPFFNLNQYPVREGEYGHWGQGTQVTVSS	low polyreactivity
QVQLVESGGGLVQAGGSLRVSCAASGRILSRNAMGWYRQAPGKERELVAAISISGGSTYYADSVKGRFTISRDNAKNTVYLQMNSLKPEDTAVYYCNTAYYGSRKYDYWGQGTQVTVSS	high polyreactivity
QVQLVESGGGLVQAGGSLRVSCAASGRTFGPYAMGWYRQAPGKERELVAAINSGDRTYYADSVKGRFTISRDNAKNTVYLQMNSLKQEDTAVYYCNARSRRPDDYWGQGTQVTVSS	low polyreactivity
QVQLVESGGGLVQAGGSLRVSCAASGRTFRYYDMGWYRQAPGKEREFVAAITWRGGSTYYADSVKGRFTISRDNAKNTVYLQMNSLKPEDTAVYYCAADPFDDQLQYDYWGQGTQVTVSS	low polyreactivity
QVQLVESGGGLVQAGGSLRVSCAASGSFFVPYAMGWYRHAPGKERELVAAISRGGDTNYADSEKGRFTISRDNAKNTVYLQRNSLKPEDTAVYYCNRARHHYSRWHGGYYYWGQGTQETVSS	low polyreactivity
QVQLVESGGGLVQAGGSLRVSCAASGSIFSSYAMGWYRQAPGKDRELVAVINSGGSTNYADSVKGRFTISRDNAKNTVYFQMNTLKPEDTAVYYCNAYGGTFHNSAAEFDYWGQGTQVSVSS	low polyreactivity
QVQLVESGGGLVQAGGSLRVSCAASGSIFYSYGMGWYRQAPVKERELVAAITSSGGGTYYADSVKGRFTISRDNAKNSVYLQMNSLKPEDTAVYYCAAHDRNYNYYPTFYYWGQGTQVSVSS	low polyreactivity
QVQLVESGGGLVQAGGSLRVSCAASGSTFFRYVMGWYRQAPGNERELVARITSSGSTYYADSVKGRFTISRDNAKNTVYLQMNSLKPEDTAVYYCAAVYASYPYRTKFYYWGQGTQVTVSS	high polyreactivity
QVQLVESGGGLVQAGGSLRVSCAASGSTFGGNAMGWYRQAPGKERELSTYYADSVKGRFTISRDNAKNTVYLQMNSLKPEDTAVYYCNTENFYGSDIFDSWGQGTQVTVSS	low polyreactivity
QVQLVESGGGLVQAGGSLRVSCAASGSTFNINAMGWYREAPGKERELVAAISSGGSTNYADSVKGRFTISRDNAKNTVYLQMNSLKPEDTAVYYCNADFILSGWWGIVGYDYWGQGTQVTVSS	low polyreactivity
QVQLVESGGGLVQAGGSLRVSCAASGSTFQYYAMGWYRQAPGKERELVARISDSSANTYYADSVKGRFTISRDNAKNTVYLQMNSLKPEYTAVYYCATRRSHVLSEMDYWGQGTQVTVSS	low polyreactivity

Sequence	polyreactivity (PSR sort gate)
QVQLVESGGGLVQAGGSLRVSCAASGYTFKHYTMGWYREAPGKERELVATISIRGGNTSYADSVKGRFTISRDTAKNTVYLQMNSLKPEDTAVYYCAARSVNAPPRYRQKAGYDYWGQGTQETVSS	high polyreactivity
QVQLVESGGGLVQAGGSLRVSCADSGNILYLYAMGWYREAPGKERELVAAISGNGGRTYYADSVKGRFTISRDNAKNTVYLQMNSLKPEDTAVYDCAADYAGRRFWYYHGLDSWGQGTQVTVSA	high polyreactivity
QVQLVESGGGLVQAGGSLSLICAASGFTFGSNDMGWYRQAPGKERELVAAIDGSGDTYYADSVKGRFTISRDNAKNTVYLQMNSLKPEDTAVYYCARDDNPIYSGVTYDYWGQGTQVTVSS	low polyreactivity
QVQLVESGGGLVQAGGSLSLICAASGFTFVDYAMGWYRQAPGKERELVAAITVSGDSTYYADSVKGRFTISRDIAKNTVYFQMNSLKPEDTAVYYCAADPGYYDGGYWGQGTQVTVSS	low polyreactivity
QVQLVESGGGLVQAGGSLSLICAASGRIYYRYHMGWYRQAPGKERELVATISRSGGSTNYADSVKGRFTISRDNAKNTVYLQMNSLNPEYTAVYYCNALYLSTRSGDYWGQGTQVTVSS	high polyreactivity
QVQLVESGGGLVQAGGSLSLICAASGSTSYRYAMGWYRQAPGKERELVAGITRSGGSTYYADSVKGRFTISRDNAKNTVYLQMNSLKPEDTAVYYCAAYYSRQYVGYGYWGQGTQVTVSS	high polyreactivity
QVQLVESGGGLVQAGGSLSLICAASRLTFYLYAMGWYRQAPGKERELLAAISYSGGSTYYADSVKGRFTISRDNAKNTVYLQMNSLKPEDTAVYYCNALRAGTDSRRTYGSTYGYWGQGTQVTVSS	high polyreactivity
QVQLVESGGGLVQAGGSLSLSCAASARTFYGSAKGWYRQAPGKERELVAAINYSGGRTYYADSVKGRFTISRDNAKNTVYLQMNSLKAEDTAGYYCAAPRASGYYWGQGTQVTVSS	high polyreactivity
QVQLVESGGGLVQAGGSLSLSCAASGFTFAFYAMGWYRQAPGKERELVAAISWDGVTTYYADSVKGRFTISRDNAKNTVYLQMNSLKPEDTAVYYCAADYPDYAGSFWPSGMYYWGQGTQVTVSS	low polyreactivity
QVQLVESGGGLVQAGGSLSLSCAASGFTVKFYAMGWYRQAPGKERELVATISSRGTSTYYADSVKGRFTISRDNAKNTVYLQMNSLKPEDTAVYYCAAAWFPAYQYRYYYWGQGTQVTVSS	high polyreactivity
QVQLVESGGGLVQAGGSLSLSCAASGFTYRLYTMGWYRQAPGKERELVAGISTSGGSTYYADSVKGRFTISRDNAKHTVYLQMNSLKPEDTAVYYCAAQAFTSYDYWGQGTQVTVSS	high polyreactivity
QVQLVESGGGLVQAGGSLSLSCAASGGIFFIYTMGWKRQAPGKEREMVAAITSTGDTKYADSVKGRFTISRDNAKTTVYLQMNSLKPEDTAVYYCNKDNGTRGKGYDYWGQGTQVTVSS	low polyreactivity
QVQLVESGGGLVQAGGSLSLSCAASGGIFFYYAMGWYRQAPGKEMELVASISYSGGSTYYADSVKGRFTISRDNAKNTVYLQMNSLKTEDTAVYYCAARTHYFPWPWYVWDYDSWGQGTQVTVSS	low polyreactivity
QVQLVESGGGLVQAGGSLSLSCAASGLIFDVYAMGWYRKAPGKERELVAVISRGVSTNYPDSVKGRFTISRDNAKNTVYLQMNSLKPEDTAVYYCATDSRGYDYWGQCTQVTVSS	high polyreactivity
QVQLVESGGGLVQAGGSLSLSCAASGLTFAKNAMGWYRQAPGKERELVAVITSSGGSTYYADSVKGRFTISRDNAKNTVYLQMNSLKPEDTAVYYCNVAYYDRSRSTGYEYWGQGTQVTVSS	high polyreactivity
QVQLVESGGGLVQAGGSLSLSCAASGLTFFGYAIGWYRQAPGKEREVVAAISTSGTRTYYADSVKGRFTISRDNAKNTVYLQMNSLKPEDTAVYYCATVRYQEYDYWGQGTQVTVSS	high polyreactivity
QVQLVESGGGLVQAGGSLSLSCAASGLTFYKNAMGWYRQAPGKERELVAVISSSGGSTYYADSVKGRFTISRDHAKNTVYLQMNSLKPEDTAVYYCARDLYTEYRWGRLTYDYWGQGTQVTVSS	low polyreactivity
QVQLVESGGGLVQAGGSLSLSCAASGRIFPYNDLGWYRQAPGKERELVADINSGDSTNYADSVKGRFTISRDNAKNTVYLQMNSLKPEDTAVYYCAAGYVRYPGVIDEYWGQGTQVTVSS	low polyreactivity
QVQLVESGGGLVQAGGSLSLSCAASGRIFTRYAMGWYRQAPGKERELVAAISYGGGGTYYADSVKGRFTISRDNAKNTVYLQMNSLKPEDTAVYYCATDDPLSQINEHGMDYWGQGTQVTVSS	low polyreactivity
QVQLVESGGGLVQAGGSLSLSCAASGRIFTYYAMGWYRQAPGKERELVAAINWGVVTTYYADSVKGRFTISRDNAKNTVYLQMNSLKPEDTAVYYCAADWFAANYYVNPVSALDYWGQGTQVTVSS	low polyreactivity

From the nanobody polyreactivity screen of Harvey et al. (2022)
